{"source": "paper PMC6650474", "biological_target": "Skeletal muscle actin (chicken) (UniProt P68139)"}
{"substance": "Mouse utrophin residues 1-H416 with C-terminal biotin and FLAG tags (from UniProt E9Q6R7 1-416) (domain or fragment)", "values": [{"measurement": "KS of the utrophin-based loaded in vitro motility assay (utrophin concentration that arrests motion), with PfMyoA K764E on the surface, 30 °C", "result": 3.04, "unit": "nM"}, {"measurement": "KS of the utrophin-based loaded in vitro motility assay (utrophin concentration that arrests motion), with PfMyoA S19A on the surface, 30 °C", "result": 2.42, "unit": "nM"}, {"measurement": "KS of the utrophin-based loaded in vitro motility assay (utrophin concentration that arrests motion), with PfMyoA WT on the surface, 30 °C", "result": 1.4, "unit": "nM"}, {"measurement": "KS of the utrophin-based loaded in vitro motility assay (utrophin concentration that arrests motion), with PfMyoA ∆N on the surface, 30 °C", "result": 10.8, "unit": "nM"}]}
